{"source": "patent US8192734B2", "about": "“Compositions and methods for bone strengthening” (Cornell University, priority 2007, dated 2012)", "molecules": {"B1": {"name": "Phytase: Escherichia coli AppA2 phytase (OptiPhos, JBS United, Inc.), added to diets at feed mixing; AppA2 is SEQ ID NO: 2 (protein, listed as Escherichia coli)", "chain": "MKAILIPFLSLLIPLTPQSAFAQSEPELKLESVVIVSRHGVRAPTKATQLMQDVTPDAWPTWPVKLGWLTPRGGELIAYLGHYQRQRLVADGLLAKKGCPQPGQVAIIADVDERTRKTGEAFAAGLAPDCAITVHTQADTSSPDPLFNPLKTGVCQLDNANVTDAILSRAGGSIADFTGHRQTAFRELERVLNFSQLNLCLNREKQDESCSLTQALPSELKVSADNVSLTGAVSLASMLTEIFLLQQAQGMPEPGWGRITDSHQWNTLLSLHNAQFYLLQRTPEVARSRATPLLDLIMAALTPHPPQKQAYGVTLPTSVLFIAGHDTNLANLGGALELNWTLPGQPDNTPPGGELVFERWRRLSDNSQWIQVSLVFQTLQQMRDKTPLSLNTPPGEVKLTLAGCEERNAQGMCSLAGFTQIVNEARIPACSL"}}, "type_in_all_cases": "in vivo, pig", "key": {"[1]": {"tested_on": "pigs fed P-adequate corn-soybean meal basal diet", "experiment": "Expt 2: BMC, BMD and bone area by dual energy X-ray absorptiometry", "procedure": "In Experiment 2, bone mineral content (BMC, g) and bone mineral density (BMD, g/cm^2) of 3rd and 4th metatarsals from the left foot and femur from the left leg of each pig were measured. After being thawed to room temperature, entire bones were placed on a rice bag (to remove background effects) and scanned by dual energy X-ray absorptiometry using the GE Lunar Prodigy instrument (GE Lunar, Prodigy, Madison Wis.) in the small animal scan mode. Values of BMC and BMD were predicted by analysis of scans using Prodigy software (version 10.10.038)."}, "[2]": {"tested_on": "pigs fed P-adequate corn-soybean meal basal diet", "experiment": "Expt 2: femur geometrical and strength properties", "procedure": "A three-point bending test was conducted on the dissected bones to generate load-deformation curves with an Instron Model 5566 (Norwood, Mass.). Mechanical properties of bones were calculated using formula as previously described^(29). Bone cross sections were cut at the mid-point of loading and used to determine area moment of inertia. Cross sections were submersed for 5 min in a 0.4 mol/L sodium hypochlorite solution to remove periosteum and marrow tissue, and then embedded in blue clay (Play-Doh, Hasbro, Pawtucket, R.I.) to prevent depth-of-field distortions and to enhance contrasts. The embedded sections were scanned with a flat-bed scanner (Epson Perfection Model 3490, Long Beach, Calif.) and analyzed using Image J software (30) to measure the x-y coordinates of bone pixels."}, "[3]": {"tested_on": "pigs fed P-adequate corn-soybean meal basal diet", "experiment": "Expt 2: metatarsal and femur mineral concentrations (ICP)", "procedure": "After the breaking strength analysis, samples (˜100 to 200 mg) of metatarsals in both experiments and femur in Experiment 2 from the right legs were used for mineral analysis. Cortical bones were isolated after removing attached connective tissue using a stainless steel scalpel and collecting individual shards using needle-nosed pliers with plastic-covered clamps. […] Concentrations of individual elements in the dried bone samples were measured using inductively coupled argon plasma spectrophotometer (ICAP 61E Trace Analyzer, Thermo Jarell Ash corporation, Franklin, Mass.)(31). Samples were digested in a mixture of HNO3 and HClO4 (9:1, vol/vol), and then diluted in 5% HNO3 before analysis."}, "[4]": {"settings": "length x width by DXA, diets with phytase"}, "[5]": {"settings": "main effect, phytase 2,000 U/kg or Sr 50 mg/kg"}, "[6]": {"settings": "phytase 2000 U/kg and/or Sr 50 mg/kg, n=6"}}}
{"molecule": "B1", "values": [{"measurement": "total bone area of femur", "setting": "[1]; [4]", "value": "45.8 ± 0.7", "unit": "cm²"}, {"measurement": "total bone area of metatarsal", "setting": "[1]; [4]", "value": "9 ± 0.2", "unit": "cm²"}, {"measurement": "increase of total bone area of femur", "setting": "[1]; main effect, P<0.05", "value": 5, "unit": "%"}, {"measurement": "increase of total bone area of metatarsal", "setting": "[1]; main effect, P<0.05", "value": 7, "unit": "%"}, {"measurement": "elevation of BMD of the two bones (metatarsal, femur)", "setting": "[1]; [5]", "value": "9 to 11", "unit": "%"}, {"measurement": "enhancement of BMC in both bones (metatarsal, femur)", "setting": "[1]; [5]", "value": "14 to 15", "unit": "%"}, {"measurement": "enhancement of yield bending moment of femur", "setting": "[2]; P<0.05", "value": 19, "unit": "%"}, {"measurement": "larger cross-sectional area of femur vs diets without phytase", "setting": "[2]; P=0.06", "value": 11, "unit": "%"}, {"measurement": "femur Cross-sectional area", "setting": "[2]; [6]", "value": 165, "unit": "mm^2"}, {"measurement": "femur Cross-sectional radius", "setting": "[2]; [6]", "value": 9.0, "unit": "mm"}, {"measurement": "femur Maximum bending moment", "setting": "[2]; [6]", "value": 2263, "unit": "kg × mm"}, {"measurement": "femur Maximum stress", "setting": "[2]; [6]", "value": 4.0, "unit": "kg/mm^2"}, {"measurement": "femur Modulus of elasticity", "setting": "[2]; [6]", "value": 49, "unit": "kg/mm^2"}, {"measurement": "femur Moment of inertia", "setting": "[2]; [6]", "value": 5419, "unit": "mm^4"}, {"measurement": "femur Strain", "setting": "[2]; [6]", "value": 0.06}, {"measurement": "femur Yield bending moment", "setting": "[2]; [6]", "value": 1507, "unit": "kg-mm"}, {"measurement": "femur Yield stress", "setting": "[2]; [6]", "value": 2.7, "unit": "kg/mm^2"}, {"measurement": "elevation of metatarsal concentration of Sr", "setting": "[3]; main effect of phytase 2,000 U/kg, P<0.07", "value": 11, "unit": "%"}, {"measurement": "femur Ca concentration", "setting": "[3]; [6]", "value": 300.3, "unit": "g/kg"}, {"measurement": "femur Cr concentration", "setting": "[3]; [6]", "value": 7.2, "unit": "mg/kg"}, {"measurement": "femur Fe concentration", "setting": "[3]; [6]", "value": 7.2, "unit": "mg/kg"}, {"measurement": "femur Mg concentration", "setting": "[3]; [6]", "value": 5.3, "unit": "g/kg"}, {"measurement": "femur Mn concentration", "setting": "[3]; [6]", "value": 0.8, "unit": "mg/kg"}, {"measurement": "femur Na concentration", "setting": "[3]; [6]", "value": 8.3, "unit": "g/kg"}, {"measurement": "femur P concentration", "setting": "[3]; [6]", "value": 178.6, "unit": "g/kg"}, {"measurement": "femur S concentration", "setting": "[3]; [6]", "value": 1.0, "unit": "g/kg"}, {"measurement": "femur Sr concentration", "setting": "[3]; [6]", "value": 94.3, "unit": "mg/kg"}, {"measurement": "femur Zn concentration", "setting": "[3]; [6]", "value": 220.1, "unit": "mg/kg"}, {"measurement": "metatarsal Ca concentration", "setting": "[3]; [6]", "value": 187.4, "unit": "g/kg"}, {"measurement": "metatarsal Cr concentration", "setting": "[3]; [6]", "value": 20.5, "unit": "mg/kg"}, {"measurement": "metatarsal Fe concentration", "setting": "[3]; [6]", "value": 15.3, "unit": "mg/kg"}, {"measurement": "metatarsal Mg concentration", "setting": "[3]; [6]", "value": 3.5, "unit": "g/kg"}, {"measurement": "metatarsal Mn concentration", "setting": "[3]; [6]", "value": 2.0, "unit": "mg/kg"}, {"measurement": "metatarsal Na concentration", "setting": "[3]; [6]", "value": 7.4, "unit": "g/kg"}, {"measurement": "metatarsal P concentration", "setting": "[3]; [6]", "value": 91.8, "unit": "g/kg"}, {"measurement": "metatarsal S concentration", "setting": "[3]; [6]", "value": 0.9, "unit": "g/kg"}, {"measurement": "metatarsal Sr concentration", "setting": "[3]; [6]", "value": 73.5, "unit": "mg/kg"}, {"measurement": "metatarsal Zn concentration", "setting": "[3]; [6]", "value": 152.3, "unit": "mg/kg"}]}
